Here are results for 9 molecules from US20070161569A1 (GENERAL HOSPITAL, published 2007).

By IC50 is commonly meant the midpoint of a concentration-inhibition curve.

In experiment [1] the target is T1, recombinant P1R chimera expressed in HKRK-B28 cells (opossum P1R from the N-terminus to the mid region of … (opossum; rat, UniProt P25107 27-288; P25961 295-591, limits assumed).
T1 construct: domain: N-terminus to the mid region of TM3;domain: mid region of TM3 to the C-terminus; also called PTH-1 receptor; receptor of HKRK-B28 cells
The experiment can be described thus: competition binding on B28 cells against 125I-PTH(1-21) tracer (SEQ ID NO 36). How it is done:
Competition Binding. Binding reactions were performed with HKRK-B28 cells or in COS-7 cells in 24-well plates. The cells were rinsed with 0.5 mL of binding buffer, and then treated successively with 100 μL binding buffer, 100 μL of binding buffer containing various amounts of unlabeled competitor ligand, and 100 μL of binding buffer containing ca. 100,000 cpm of ¹²⁵I-[Aib^{1,3},Nle⁸,Gln¹⁰,Har¹¹,Ala¹²,Trp¹⁴,Arg¹⁹,Tyr²¹]rPTH(1-21) (SEQ. ID. NO. 36) (ca. 26 fmol; final volume=300 μL). Incubations were 4 to 6 h at 4° C., at which time near equilibrium conditions were attained. Cells were then placed on ice, the binding medium was removed, and the monolayer was rinsed three times with 0.5 mL of cold binding buffer. The cells were subsequently lysed with 0.5 mL 5N NaOH and counted for radioactivity. For each tracer and in each experiment, the non-specific binding was determined as the radioactivity that bound in the presence of the same unlabeled peptide at a concentration of 1 μM, and was ˜1% of total radioactivity added for each tracer. The maximum specific binding (B₀) was the total radioactivity bound in the absence of competing ligand, corrected for nonspecific binding, and for each tracer, ranged from 8% to 20% of the total radioactivity added. Nonlinear regression was used to calculate binding IC₅₀ values (see below). Scatchard transformations of homologous competition binding data derived from studies with 26 fmol of ¹²⁵I-[Aib^{1,3},Nle⁸,Gln¹⁰,Har¹¹,Ala¹²,Trp¹⁴, Arg¹⁹,Tyr²¹]rPTH(1-21) (SEQ. ID. NO. 36) were employed for estimations of apparent equilibrium dissociation constant (kDapps) and total number of ligand binding sites (Bₘₐₓ), assuming a single class of binding sites and equal affinities of the iodinated and non iodinated ligand.

Experiment [2] deals with T1, recombinant P1R chimera expressed in …. Briefly: cell-based or functional assay.
For experiment [3], the target named is T2, P1R-delNt, a recombinant human PTH-1 receptor construct in which most of the amino-terminal extracellular … (human, UniProt Q03431 23-593, limits assumed).
T2 sequence (looked up): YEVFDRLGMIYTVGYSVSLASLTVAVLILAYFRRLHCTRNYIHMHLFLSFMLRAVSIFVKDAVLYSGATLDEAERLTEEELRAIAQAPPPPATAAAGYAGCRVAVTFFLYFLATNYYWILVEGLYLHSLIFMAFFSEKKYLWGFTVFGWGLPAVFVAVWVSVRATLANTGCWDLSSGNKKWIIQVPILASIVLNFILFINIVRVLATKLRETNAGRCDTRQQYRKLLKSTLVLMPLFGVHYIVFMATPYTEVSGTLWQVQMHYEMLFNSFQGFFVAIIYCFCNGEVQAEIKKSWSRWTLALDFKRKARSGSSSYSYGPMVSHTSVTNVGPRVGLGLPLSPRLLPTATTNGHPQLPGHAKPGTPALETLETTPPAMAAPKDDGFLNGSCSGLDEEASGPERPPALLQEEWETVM
The experiment can be described thus: cell-based or functional assay.

Where “and” joins values, the source holds several entries; their conditions need not be identical. Equal values may be shown once. Non-standard residues stand in square brackets, D forms with d. No end group written: not given here. hArg = N=C(N)NCCCC[C@H](N)C(=O)O; Ac5c = NC1(C(=O)O)CCCC1; Deg = CCC(N)(CC)C(=O)O; Ac3c = NC1(C(=O)O)CC1; Aib = CC(C)(N)C(=O)O

T1 sequence (P25107 other isoform, or with tags, fused parts or gaps limits assumed): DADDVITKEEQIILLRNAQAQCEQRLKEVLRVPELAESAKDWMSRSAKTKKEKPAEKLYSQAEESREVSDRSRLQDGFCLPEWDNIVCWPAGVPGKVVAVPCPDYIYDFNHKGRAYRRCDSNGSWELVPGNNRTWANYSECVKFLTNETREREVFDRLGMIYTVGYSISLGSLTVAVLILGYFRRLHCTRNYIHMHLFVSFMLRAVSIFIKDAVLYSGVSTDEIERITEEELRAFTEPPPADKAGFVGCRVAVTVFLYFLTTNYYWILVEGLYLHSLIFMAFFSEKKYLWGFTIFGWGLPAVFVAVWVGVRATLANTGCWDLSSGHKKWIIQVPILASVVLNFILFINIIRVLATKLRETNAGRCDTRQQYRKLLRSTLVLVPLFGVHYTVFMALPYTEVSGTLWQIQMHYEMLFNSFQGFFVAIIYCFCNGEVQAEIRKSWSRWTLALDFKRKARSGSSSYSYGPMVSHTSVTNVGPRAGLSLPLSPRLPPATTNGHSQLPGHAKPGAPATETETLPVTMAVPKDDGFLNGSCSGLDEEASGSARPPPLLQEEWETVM

B1: [M]PTH(1-14) analog in which alanine-3 is substituted with 1-aminocyclopentane-1-carboxylic acid (Ac5c) (peptide)
peptide: AV[Ac5c]EIQLMHQ[hArg]AKW-NH2
modifications: N-terminus assumed
SMILES: CC[C@H](C)[C@H](NC(=O)[C@H](CCC(=O)O)NC(=O)C1(NC(=O)[C@@H](NC(=O)[C@H](C)N)C(C)C)CCCC1)C(=O)N[C@@H](CCC(N)=O)C(=O)N[C@@H](CC(C)C)C(=O)N[C@@H](CCSC)C(=O)N[C@@H](Cc1c[nH]cn1)C(=O)N[C@@H](CCC(N)=O)C(=O)N[C@@H](CCCCNC(=N)N)C(=O)N[C@@H](C)C(=O)N[C@@H](CCCCN)C(=O)N[C@@H](Cc1c[nH]c2ccccc12)C(N)=O
notes: also called Ac5c^3-containing analog; Ac5c-3
As to B1, in experiment [1], the half-maximal inhibitory concentration (IC50) was ~3 µM. Moreover, the “cAMP-stimulating potency, fold increase over the parent analog” value in experiment [2] is < 2 fold.

B2: [Ac3c^1,M]PTH(1-14) (peptide)
peptide: [Ac3c]VAEIQLMHQ[hArg]AKW-NH2
modifications: N-terminus assumed
SMILES: CC[C@H](C)[C@H](NC(=O)[C@H](CCC(=O)O)NC(=O)[C@H](C)NC(=O)[C@@H](NC(=O)C1(N)CC1)C(C)C)C(=O)N[C@@H](CCC(N)=O)C(=O)N[C@@H](CC(C)C)C(=O)N[C@@H](CCSC)C(=O)N[C@@H](Cc1c[nH]cn1)C(=O)N[C@@H](CCC(N)=O)C(=O)N[C@@H](CCCCNC(=N)N)C(=O)N[C@@H](C)C(=O)N[C@@H](CCCCN)C(=O)N[C@@H](Cc1c[nH]c2ccccc12)C(N)=O
With B2, the “cAMP accumulation, fold more potent than the parent analog” value in experiment [2] was ~2 fold.

B3: [Aib^1,3,Gln^10,Har^11,Ala^12,Trp^14]PTH(1-14)NH2 (peptide)
peptide: [Aib]V[Aib]EIQLMHQ[hArg]AKW-NH2
modifications: N-terminus assumed
SMILES: CC[C@H](C)[C@H](NC(=O)[C@H](CCC(=O)O)NC(=O)C(C)(C)NC(=O)[C@@H](NC(=O)C(C)(C)N)C(C)C)C(=O)N[C@@H](CCC(N)=O)C(=O)N[C@@H](CC(C)C)C(=O)N[C@@H](CCSC)C(=O)N[C@@H](Cc1c[nH]cn1)C(=O)N[C@@H](CCC(N)=O)C(=O)N[C@@H](CCCCNC(=N)N)C(=O)N[C@@H](C)C(=O)N[C@@H](CCCCN)C(=O)N[C@@H](Cc1c[nH]c2ccccc12)C(N)=O
For the molecule B3, in experiment [3], the “cAMP EC50 in LdelNt-2 cells” value turned out to be 0.0064 µM.

B4: [Aib^1,3,Gln^10]PTH(1-10)NH2 (peptide)
peptide: [Aib]V[Aib]EIQLMHQ-NH2
modifications: N-terminus assumed
SMILES: CC[C@H](C)[C@H](NC(=O)[C@H](CCC(=O)O)NC(=O)C(C)(C)NC(=O)[C@@H](NC(=O)C(C)(C)N)C(C)C)C(=O)N[C@@H](CCC(N)=O)C(=O)N[C@@H](CC(C)C)C(=O)N[C@@H](CCSC)C(=O)N[C@@H](Cc1c[nH]cn1)C(=O)N[C@@H](CCC(N)=O)C(N)=O
On to B4, for which, in experiment [2], the “increase in cAMP accumulation, peptide at 1×10^-4M” value was 2 fold.

B5: [M]PTH(1-14) analog in which alanine-3 is substituted with α,α-diethylglycine (Deg) (peptide)
peptide: H-AV[Deg]EIQLMHQ[hArg]AKW-NH2
SMILES: CC[C@H](C)[C@H](NC(=O)[C@H](CCC(=O)O)NC(=O)C(CC)(CC)NC(=O)[C@@H](NC(=O)[C@H](C)N)C(C)C)C(=O)N[C@@H](CCC(N)=O)C(=O)N[C@@H](CC(C)C)C(=O)N[C@@H](CCSC)C(=O)N[C@@H](Cc1c[nH]cn1)C(=O)N[C@@H](CCC(N)=O)C(=O)N[C@@H](CCCCNC(=N)N)C(=O)N[C@@H](C)C(=O)N[C@@H](CCCCN)C(=O)N[C@@H](Cc1c[nH]c2ccccc12)C(N)=O
notes: also called Deg^3-containing analog; Deg-3
With B5, in experiment [1], the 50% inhibitory concentration (IC50) was ~3 µM and the “fold improved affinity relative to the parent [M]PTH(1-14)” value is ~1.5 fold. Besides, in experiment [2], the “cAMP-stimulating potency, fold diminished against the parent analog” value was ~10 fold and the “signaling potency, fold diminished relative to parent [M]PTH(1-14)” value was ~40 fold.

B6: [Ac5c^1,Aib^3,Gln^10]PTH(1-10)NH2 (peptide)
peptide: [Ac5c]V[Aib]EIQLMHQ-NH2
modifications: N-terminus assumed
SMILES: CC[C@H](C)[C@H](NC(=O)[C@H](CCC(=O)O)NC(=O)C(C)(C)NC(=O)[C@@H](NC(=O)C1(N)CCCC1)C(C)C)C(=O)N[C@@H](CCC(N)=O)C(=O)N[C@@H](CC(C)C)C(=O)N[C@@H](CCSC)C(=O)N[C@@H](Cc1c[nH]cn1)C(=O)N[C@@H](CCC(N)=O)C(N)=O
As to B6, in experiment [2], the “cAMP EC50 in HKRK-B28 cells” value is ~3 µM and the “increase in cAMP levels relative to basal, peptide at 10 µM, HKRK-B28 cells” value stood at 33 fold. Besides, the “cAMP EC50 in LdelNt-2 cells” value in experiment [3] is ~40 µM and 37 µM.

B7: [Ac5c^1,M]PTH(1-14) (peptide)
peptide: [Ac5c]VAEIQLMHQ[hArg]AKW-NH2
modifications: N-terminus assumed
SMILES: CC[C@H](C)[C@H](NC(=O)[C@H](CCC(=O)O)NC(=O)[C@H](C)NC(=O)[C@@H](NC(=O)C1(N)CCCC1)C(C)C)C(=O)N[C@@H](CCC(N)=O)C(=O)N[C@@H](CC(C)C)C(=O)N[C@@H](CCSC)C(=O)N[C@@H](Cc1c[nH]cn1)C(=O)N[C@@H](CCC(N)=O)C(=O)N[C@@H](CCCCNC(=N)N)C(=O)N[C@@H](C)C(=O)N[C@@H](CCCCN)C(=O)N[C@@H](Cc1c[nH]c2ccccc12)C(N)=O
notes: also called Ac5c (position 1) analog; Ac5c^1 modification
Regarding B7, the “fold improved affinity relative to the parent [M]PTH(1-14)” value in experiment [1] worked out at 50 fold. Further, in experiment [2], the “cAMP accumulation, fold more potent than the parent analog” value was 61 fold and the “cAMP potency, fold improvement relative to parent [M]PTH(1-14)” value was ~35 fold.

B8: [Ac5c^1,Aib^3]PTH(1-9)NH2 (peptide)
peptide: [Ac5c]V[Aib]EIQLMH-NH2
modifications: N-terminus assumed
SMILES: CC[C@H](C)[C@H](NC(=O)[C@H](CCC(=O)O)NC(=O)C(C)(C)NC(=O)[C@@H](NC(=O)C1(N)CCCC1)C(C)C)C(=O)N[C@@H](CCC(N)=O)C(=O)N[C@@H](CC(C)C)C(=O)N[C@@H](CCSC)C(=O)N[C@@H](Cc1c[nH]cn1)C(N)=O
For the molecule B8, in experiment [2], the “increase in cAMP levels relative to basal, peptide at 1×10^-4M” value was 6 fold.

B9: [Deg^1,M]PTH(1-14) (peptide)
peptide: [Deg]VAEIQLMHQ[hArg]AKW-NH2
modifications: N-terminus assumed
SMILES: CC[C@H](C)[C@H](NC(=O)[C@H](CCC(=O)O)NC(=O)[C@H](C)NC(=O)[C@@H](NC(=O)C(N)(CC)CC)C(C)C)C(=O)N[C@@H](CCC(N)=O)C(=O)N[C@@H](CC(C)C)C(=O)N[C@@H](CCSC)C(=O)N[C@@H](Cc1c[nH]cn1)C(=O)N[C@@H](CCC(N)=O)C(=O)N[C@@H](CCCCNC(=N)N)C(=O)N[C@@H](C)C(=O)N[C@@H](CCCCN)C(=O)N[C@@H](Cc1c[nH]c2ccccc12)C(N)=O
With B9, in experiment [2], the “cAMP accumulation, fold more potent than the parent analog” value came out at 11 fold.
